Reference: paper PMC6637110

Biological target: its substrates (DNA-bound substrates of p97 on plasmid isolated from extract with p97i)
Test: pull-down; dilution experiment: plasmid incubated 180 minutes in extract with CB-5083, isolated by plasmid pull-down, washed, resuspended in 100 volumes of ELB with or without 5 mM ATP, 21 °C; p97 retained on bead-bound DNA by Western blot over time

- decrease of DNA-bound p97 within 180 minutes, with ATP: 90%
- decrease of DNA-bound p97 within 180 minutes, without ATP: 70%
Substance: p97 (endogenous, Xenopus egg extract) (from UniProt P23787 1-805) (natural protein)
